Target: T1, 송아지 혈청 알부민(BSA) (bovine (printed: 송아지 혈청 알부민), UniProt P02769 25-607)
T1 construct: also called bovine serum albumin
Assay: phage ELISA, 1% BSA coated, anti-M13-peroxidase, absorbance 492 nm

T1 sequence (P02769 25-607 limits assumed): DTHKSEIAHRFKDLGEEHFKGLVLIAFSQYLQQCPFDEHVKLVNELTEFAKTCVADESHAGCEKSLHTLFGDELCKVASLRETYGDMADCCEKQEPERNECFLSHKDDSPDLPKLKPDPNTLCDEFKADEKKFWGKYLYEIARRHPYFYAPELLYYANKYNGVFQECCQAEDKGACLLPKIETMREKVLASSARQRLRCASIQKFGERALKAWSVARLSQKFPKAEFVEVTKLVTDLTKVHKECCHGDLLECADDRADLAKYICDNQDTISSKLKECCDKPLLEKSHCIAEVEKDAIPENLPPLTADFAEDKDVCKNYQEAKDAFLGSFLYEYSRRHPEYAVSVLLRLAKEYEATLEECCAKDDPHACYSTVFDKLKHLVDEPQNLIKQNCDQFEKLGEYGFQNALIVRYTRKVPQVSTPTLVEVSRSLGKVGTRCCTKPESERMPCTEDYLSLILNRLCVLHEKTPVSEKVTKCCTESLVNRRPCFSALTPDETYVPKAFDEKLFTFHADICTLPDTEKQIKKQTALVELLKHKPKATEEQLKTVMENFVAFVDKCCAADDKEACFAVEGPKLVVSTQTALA

B1: SC05-159 (scFv)
scFv: QVQLVQSGAEVKKPGATVKISCKVSGYTFTDYYMHWVQQAPGKGLEWMGLVDPEDGETIYAEKFQGRVTITADTSTDTAYMELSSLRSDDTAVYYCARAEVMTTINNWYFDLWGRGTLVTVSSGTGGSGGTGSGTGGSTSYVLTQPPSASGTPGQRVTISCSGSSSNIGSNNVSWYQQLPGTAPKLLIYSNNQRPSGVPDRFSGSKSGTSASLAISGLQSEDEADYYCAAWDDSLNGWVFGGGTKLTVL
notes: single-chain phage antibody: the scFv stood on phage in the ELISA
B1: no binding.

B2: SC06-241 (scFv)
scFv: EVQLVESGGGLVQPGRSLRLSCAASGFTFRSYAMYWVRQAPGKGLEWLALISHDASKMFYADSVKGRFTISRDNSKNTLSLQMNSLTIEDTAVYYCVRERTGYYGAYWGQGTLVTVSSGTGGSGGTGSGTGGSTDIQMTQSPSSLSASVGDRVTLTCRASQGIGTWLAWYQQKPGKAPKLLIYSASSLQSGVPSRFSGSGSGTDFTLSISNLQPEDFATYYCQQANSFPITFGQGTRLEIK
notes: as for B1
B2: no binding.

B3: SC06-415 (scFv)
scFv: EVQLVESGGGLVQPGRSLRLSCAASGFTFDDYAMHWVRQAPGKGLEWVSGISWNSGSIGYADSVKGRFTISRDNAKNSLYLQMNSLRAEDSAVYYCARGGQRFDFWGQGTLVTVSSGTGGSGGTGSGTGGSTQSALTQPPSASGSPGQSVTISCTGTSSDVGGYNYVSWYQQLPGKAPKLLIYDVNNRPSGVSNRFSGSKSGNTASLTISGLQAEDEAEYYCGSSVGSRLRIFGGGTKLTVL
notes: as for B1
B3: no binding.

B4: SC06-198 (scFv)
scFv: QLQLQESGPGLVKPSETLSLTCAVSGYSITSGYYWGWVRQPPGKGLEWIGSIYHTGSTYYNPSLKSRVTISVDTSKNQFSLKLNSLTAADTAVYFCASQSPAFDFWGQGTMVTVSSGTGGSGGTGSGTGGSTQSVLTQPPSVSGAPGQRVTISCTGSSSNIGTGYDVHWYQQLPGTAPKLLIYGNNNRPSGVPDRFSGSKSGTSASLAITGLQAEDEADYYCATWDDSLNGWVFGGGTKLTVP
notes: as for B1
B4: no binding.

B5: SC06-402 (scFv)
scFv: QVQLVQSGAEVKKPGESLKISCKGSGYSFTSYWIGWVRQMPGKGLEWMGIIYPGDSDTRYSPSFQGQVTISADKSISTAYLQWSSLKASDTAMYYCARWGGVCSSTSCPNRDAFDIWGQGTMVTVSSGTGGSGGTGSGTGGSTQSALTQPRSVSGSPGQSVTISCTGTSSDVGGYNYVSWYQQHPGKAPKLMIYDVSNRPSGVSNRFSGSKSGNTASLTISGLQAEDEAEFHCSSYRSSGASPVVFGGGTKLTVL
notes: as for B1
B5: no binding.

B6: SC06-246 (scFv)
scFv: EVQLVESGGGLIQPGGSLRLSCAASGFTVSSDFMTWVRQAPGRGLEWVSLIYSGGKTNYADSVKGRFTISRDNSRNTLYLQMNSLRAEDTAVYYCARSVCSTISCSKLDDWGQGTLVTVSSGTGGSGGTGSGTGGSTQAVLTQPSSVSVAPGQTARITCGGNNIGRKSVHWYQQKPGLAPVLVVNDNSDRPSGIPARFSGSNSGNTATLTISRVEAGDEADYYCHVWGSSRDHYVFGTGTKVTVL
notes: as for B1
B6: no binding.

B7: SC05-157 (scFv)
scFv: EVQLVESGAEVKKPGESLKISCKGSGYSFTNYWIGWVRQMPGKGLEWMGIVYPGDSDTRYSPSFQGQVTISADKSISTAYLQWSSLKASDTAVYYCARRMAVAGSDAFDIWGQGTMVTVSSGTGGSGGTGSGTGGSTQAVLTQPSSASGTPGQTVTISCSGSTSNIGSHNVNWYQHLPGTAPKLLIYINNKRPSGVPDRFSGSKSGSSASLAISGLQSEDEADYYCAAWDDSLRRPVFGGGTQLTVL
notes: as for B1
B7: no binding.

B8: SC06-071 (scFv)
scFv: EVQLVESGGGVVQPGRSLRLSCAASGFTFSSYGMHWVRQAPGKGLEWVAMIWSDGSNKYYADSVKGRFTISRDNSKNTLYLQMNSLRVEDTAVYYCASNYGSGSYWGGFDYWGQGTLVTVSSGTGGSGGTGSGTGGSTQSALTQPASVSGSPGQSITISCTGTSSDVGGYNLVSWYQQHPGKAPKLMIYEGSKRPSGVSNRFFGSKSGDTASLTISGLQAEDEADYYCSSYTTSSTHVFGTGTKVTVL
notes: as for B1
B8: no binding.

B9: SC06-242 (scFv)
scFv: EVQLVESGPGLVKPSETLSLTCTVSGGSISSYYWSWIRQPPGKGLEWIGYIYYTGTTNYNPSLNSRVTISADTSKNQFSLKLSSVTAADTAVYYCARGGQTAGVWGKGTTVTVSSGTGGSGGTGSGTGGSTQSVLTQPPSVSVAPGQTARITCGGYNIGRKSVHWYQQKPGLAPVLVVYDNSDRPSGIPARFSGSNSGNTATLTISGTQAMDEADYYCQAWDRGTAVFGTGTKVTVL
notes: as for B1
B9: no binding.

B10: SC06-078 (scFv)
scFv: EVQLVESGAEVKKPGSSVKVSCKASGGTFSSYAISWVRQAPGQGLEWMGGIIPIFGTANYAQKFQGKVTITADESTSTAYMELSSLRSEDTAVYYCARLSPRYYGMDVWGQGTTVTVSSGTGGSGGTGSGTGGSTQSALTQPRSVSGSPGQSVTISCTGTSSDVGGYNYVSWYQQHPGKAPKLMIYGGSERPSGVSNRFSGSKSGNTASLTISGVQAEDEADYYCSSYTSSGTLLFGGGTQLTVL
notes: as for B1
B10: no binding.

B11: SC06-087 (scFv)
scFv: EVQLVESGGGLVKPGGSLRLSCAASGFTFSSNSMNWVRQAPGKGLEWVSFISSSSTYIYYADSVKGRFTISRDNAKNSLYLQMNSLRAEDTAVYYCARESAAGISYDAFDIWGQGTMVTVSSGTGGSGGTGSGTGGSTQSALTQPASVSGSPGQSITISCTGTSSDVGGYKYVSWYQQHPGKAPKLMIYEVSNRPSGVSNRFSGSKSGSTASLTISGLQAEDEADYYCSSYTSSSTLGVFGTGTKVTVL
notes: as for B1
B11: no binding.

B12: SC06-252 (scFv)
scFv: EVQLVETGGGLVQPGGSLRLSCAASGLTFSSYAMSWVRQAPGKGLEWVSALSGSTTFYADSVKGRFTISRDNAKNTLYLQMNSLRAEDTAVYYCARGNYYGMDVWGQGTTVTVSSGTGGSGGTGSGTGGSTSYVLTQPPSASGTPGQRVTISCSGSSSNIGKFYVYWYQQFPGAAPKLLIYSNNQRPSGVPDRFSGSKSGTSASLAISGLQSEDEADYYCAAWDGSLNGYVFGTGTKVTVL
notes: as for B1
B12: no binding.

B13: SC06-389 (scFv)
scFv: QVQLVQSGAEVKKPGESLKISCKGSGYSFSTYWIGWVRQMPGKGLEWMGIIYPGDSDTRYSPSFQGQVTISADKSISTAHLQWSSLKASDTAMYYCARPGPRGYNHGFDYWGQGTLVTVSSGTGGSGGTGSGTGGSTSSELTQDPAESVALGQTVKITCQGDSLRRYYASWYQQKPGQAPVLVIYGKNNRPSGIPDRFSGSRSGNTASLTITGAQAEDEAVYYCNSRDSSGNSVVFGGGTKLTVL
notes: as for B1
B13: no binding.

B14: SC06-092 (scFv)
scFv: EVQLVESGGGLVQPGRSLRLSCTGSGFTFGDYAMSWFRQAPGKGLEWVGFIRNKAYGGTAEYAASVKDRFIISRDDSKSIAYLQMNSLKTEDTAVYYCVRREYDTGWLDYWGQGTLVTVSSGTGGSGGTGSGTGGSTQSALTQPPSASGSPGQSVTISCTGTSSDVGGYNYVSWYQRHPGKAPKLMIYDVTDRPSGVSNRFSGSKSGNTASLTISGLQAEDEADYYCSSYTSSSTSAVFGGGTKLTVL
notes: as for B1
B14: no binding.

B15: SC06-077 (scFv)
scFv: QVQLVQSGAEVKKPGSSVKVSCKASGGTFSSYAISWVRQAPGQGLEWMGGIIPIFGTANYAQKFQGRVTITADESTSTAYMELSSLRSEDTAVYYCAREGGVGPAFDIWGQGTMVTVSSGTGGSGGTGSGTGGSTDIQMTQSPDSLAVSLGERATINCKSSQSVLHNSNNKNYLAWYQQKPGQPPKLLIYWASTRESGVPDRFSGSGSGTDFTLTISSLQAEDVAVYYCQQYYGSPYTFGQGTKLEIK
notes: as for B1
B15: no binding.

B16: SC06-079 (scFv)
scFv: EVQLVESGGGLVQPGGSLRLSCAASGFTFSSYAMSWVRQAPGKGLEWVSAISGTGGSAYYADSVKGRFTISRDNSKNTVYLQMNSLRAEDTAVYYCAKGHSSGTNWGQGTLVTVSSGTGGSGGTGSGTGGSTSYVLTQPPSASGTPGQRVTISCSGSSSNIGSNFVYWYQQLPGTAPKLLIYRNNQRPSGVPDRFSGSKSGTSASLAISGLRSEDEADYYCAAWDDSLSGVLFGGGTQLTVL
notes: as for B1
B16: no binding.

B17: SC06-089 (scFv)
scFv: EVQLVETGGGLVQPGGSLRLSCAASGFTFSSYSMNWVRQAPGKGLEWVSFISSSSSTIYYADSVKGRFTIARDNAKNSLYLQMNSLRDEDTAVYYCARPVGTGISLFHAFDIWGQGTMVTVSSGTGGSGGTGSGTGGSTQSVLTQPPSVSVAPGQTARITCGGNNIGSKYVHWYQQKPGQAPVLVVYDDSDRPSGIPERFSGSNSGNTATLTISRVEAGDEADFYCQVWDGSSDPVVFGGGTKLTVL
notes: as for B1
B17: no binding.

B18: SC06-409 (scFv)
scFv: EVQLVQSGAEVKKPGESLKISCKGSGYSFTNYWIGWVRQMPGKGLEWMGIIYPGDSDTRYSPSFQGQVTISADKSISTAYLQWSSLKASDTAMYYCARHTQNKNGMNTFDIWGQGTMVTVSSGTGGSGGTGSGTGGSTQSALTQPPSASGSPGQSVTISCTGTSSDIGGYNYVSWYQQHPGKAPKLMIYEVSNRPPGVSNRFSGSKSGNTASLTISGLQAEDEADYYCSSYSTTTTRVIFGGGTKLTVL
notes: as for B1
B18: no binding.

B19: SC06-191 (scFv)
scFv: EVQLVESGGGVVQPGRSLRLSCVASEFTFSNYGMHWVRQAPGKGLEWVAVIWYDGSNEDYADSVKGRFTISRDNSKNTVYLHMNSLRAEDTAVYFCTRGQYSSTWFLDYWGQGTLVTVSSGTGGSGGTGSGTGGSTDIQLTQSPSTLSASVGDRVTITCRASQSISSWLAWYQQKPGKAPKLLIYKASSLETGVPSRFSGSGSGTDFTLTISSLQPEDFATYYCQQANSFPLTFGGGTKVDIK
notes: as for B1
B19: no binding.

B20: SC06-388 (scFv)
scFv: EVQLVETGAEVKKPGESLRISCKGSGYSFTSYWIAWVRQMPGKGLEWMGVIYPGDSDARYSPSFQGQVTMSVDKSISTAYLQWSSLKASDTAMYYCAKLRSKNTGLDYWGQGTLVTVSSGTGGSGGTGSGTGGSTQSALTQPPSASGSPGQSVTISCTGTSSDVGGYNFVSWYQQHPGKAPKLMIYEVSNRPSGVPDRFSGSKSGNTASLTVSGLQAEDEADYYCSSYAGNNNLAFGGGTQLTVL
notes: as for B1
B20: no binding.
